Earlier results as cited in publication PMC2874015.

Tests used:
[1] = molecular target: GCN4 leucine zipper (Saccharomyces cerevisiae) (UniProt P03069)
[2] = molecular target: c-Jun leucine zipper (Homo sapiens) (UniProt P05412)

c-Jun leucine zipper, sequence (P05412 277-311): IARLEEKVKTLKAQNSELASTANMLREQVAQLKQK
GCN4 leucine zipper, sequence (P03069 250-277): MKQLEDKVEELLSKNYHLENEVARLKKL

Kd [1] [µM] | Kd [2] [µM] | Substance
0.008 |  | GCN4 leucine zipper (from UniProt P03069)
 | 448 | c-Jun leucine zipper (from UniProt P05412)
